Results: patent US20030087395A1, “Cardiotrophin-like cytokine” (Human Genome Sciences, Inc., priority 1997, published 2003)

How the values were obtained:
M1 cells [1] = test: M1 cell proliferation by BrdU incorporation; assay type: cell-based; details: dose of 100 μL, 72 hours
Description: The effect of CLC on cellular proliferation can be assayed in M1 cells by BrdU incorporation. 1×10^4 cells/100 μL are dispensed into 96-well cell culture plates and labeled with 10 μL BrdU. CLC is added to the cells at several doses (0, 5, 25, and 100 μL) and LIF is added to the cells as a positive control at a dose of 100 μL. The cells are allowed to grow for 72 hours at 37° C. The amount of BrdU incorporation is determined by the Cell Proliferation ELISA BrdU colorimetric kit (Boehringer Mannheim).

M1 cells [2] = test: Protein tyrosine phosphorylation after anti-gp130 immunoprecipitation; assay type: cell-based; details: M1 cells treated with CLC or LIF supernatant; band of apparent molecular mass 32 kDa
Description: Because of the wide range of known factors capable of stimulating tyrosine kinase activity, identifying whether CLC or a molecule induced by CLC is capable of activating tyrosine kinase signal transduction pathways is of interest. Therefore, the following protocol is designed to identify such molecules capable of activating the tyrosine kinase signal transduction pathways.
Seed NIH-3T3 cells in 15 cm^2 cell culture plates in DMEM supplemented with Pen/Strep, 10% FBS, 25 mM Hepes. […] At the point the experiment begins, the cells should be 80-90% confluent. Collect M1 cells in 50 ml tube and centrifuge 1000 rpm for 5 min. Resuspend the cell pellet in “quiescing medium” which is RPMI supplemented with Pen/Strep, glutamine. (It is important to note that quiescing medium contains neither serum nor growth factors.) Centrifuge again at 1000 rpm for 5 min to wash the cells. Again, resuspend the cells in quiescing medium. Incubate the M1 cells in quiescing medium for 16 hours at 37° C.
Pre-warm quiescing medium (for Ml cells) and a metal tube rack to 37° C. Pre-cool quiescing media (for NIH-3T3 cells) and sterile Eppendorf tubes containing 0.5 ml of sample. […] Resuspend M1 cells to 5.0×10^7 cells per 0.5 ml quiescing media. Place all tubes on per warmed metal rack and leave at 37° C. until ready to begin. Add samples to these pre-aliquoted tubes. […]

STATS = details: numbers of the STATs activated; adapted from Schidler and Darnell review; cited from earlier work
[3] = system: primary neuronal cultures (sympathetic neuron counts); test: Neuron counts in primary neuronal cultures; assay type: cell-based; details: counted 48 to 72 hours post-treatment; four fields in three independent cultures, averaged
Description: (§1) Primary cardiomyocytes, primary neuronal cultures, or other cells are plated at a low density and cultured using standard culturing techniques. […] Cultures are evaluated at a point between 48 and 72 hours post-treatment by counting the number of cells in four non-overlapping fields in three independent cultures and averaging the results.

Primary cardiomyocytes = test: Cardiac myocyte hypertrophy, cell counts in culture; assay type: cell-based; details: counted 48 to 72 hours post-treatment; four fields in three independent cultures, averaged
Description: as §1

GAS or ISRE = details: element bound; adapted from Schidler and Darnell review; cited from earlier work

Molecule | inhibition of M1 cell proliferation with respect to the negative control (M1 cells [1]) [fold] | band of tyrosine-phosphorylated protein in cell extracts (M1 cells [2]) | STATS (STATS) | No. Neurons [3] | No. Active Myocytes (Primary cardiomyocytes) | GAS or ISRE (GAS or ISRE)
LIF: leukemia inhibitory factor, IL-6 family cytokine used as positive control for CLC [reference compound] | 4.8 | produced a band of phosphorylated protein | 1,3 |  |  | 
CNC[C@H](O)c1cccc(O)c1 [Phenylephrine, reference compound] |  |  |  | 28 | 92 | 
IL-4: g-C family ligand (lymph/myeloid) (protein, UniProt P05112 25-153, looked up) Interleukin-4: HKCDITLQEIIKTLNSLTEQKTLCTELTVTDIFAASKNTTEKETFCRAATVLRQFYSHHEKDTRCLGATAQQFHRHKQLIRFLKRLDRNLWGLAGLNSCPVKEANQSTLENFLERLKTIMREKYSKCSS |  |  | 6 |  |  | GAS
CSF-1: ligand of Receptor Tyrosine Kinases (protein, UniProt P09603 33-554, looked up) Macrophage colony-stimulating …: EEVSEYCSHMIGSGHLQSLQRLIDSQMETSCQITFEFVDQEQLKDPVCYLKKAFLLVQDIMEDTMRFRDNTPNAIAIVQLQELSLRLKSCFTKDYEEHDKACVRTFYETPLQLLEKVKNVFNETKNLLDKDWNIFSKNCNNSFAECSSQDVVTKPDCNCLYPKAIPSSDPASVSPHQPLAPSMAPVAGLTWEDSEGTEGSSLLPGEQPLHTVDPGSAKQRPPRSTCQSFEPPETPVVKDSTIGGSPQPRPSVGAFNPGMEDILDSAMGTNWVPEEASGEASEIPVPQGTELSPSRPGGGSMQTEPARPSNFLSASSPLPASAKGQQPADVTGTALPRVGPVRPTGQDWNHTPQKTDHPSALLRDPPEPGSPRISSLRPQGLSNPSTLSAQPQLSRSHSSGSVLPLGELEGRRSTRDRRSPAEPEGGPASEGAARPLPRFNSVPLTDTGHERQSEGSFSPQLQESVFHLLVPSVILVLLAVGGLLFYRWRRRSHQEPQRADSPLEQPEGSPLTQDDRQVELPV |  |  | 1,3 |  |  | GAS (not
IL-7: g-C family ligand (lymphocytes) (protein, UniProt P13232 26-177, looked up) Interleukin-7: DCDIEGKDGKQYESVLMVSIDQLLDSMKEIGSNCLNNEFNFFKRHICDANKEGMFLFRAARKLRQFLKMNSTGDFDLHLLKVSEGTTILLNCTGQVKGRKPAALGEAQPTKSLEENKSLKEQKKLNDLCFLKRLLQEIKTCWNKILMGTKEH |  |  | 5 |  |  | GAS
